Data taken from patent US20230322940A1 (published 2023).

B1: fusion protein shown in SEQ ID NO. 4 (anti-CD44 single-chain antibody, anti-CD133 single-chain antibody, CD28, CD3), expressed on CAR-T 2 cells (other)
chain: QVQLVESGGGVVQPGRSLRLSCAASGFTFSSYGMHWVRQAPGKGLEWVAVIWYDGSNKFYADSVKGRFTISRDNSKNTLYLQMNSLRAEDTAVYYCARRSDYRGYYGMDVWGQGTTVTVSSGSTSGGGSGGGSGGGGSSEIVLTQSPATLSLSPGERATLSCRASQSVINYLAWYQQKPGQAPRLLIYDASNRASGIPARFSGSGSGTDFTLTISSLEPEDFAVYYCQQRRNWPLTFGGGTKVEIKGGGGSGGGGSGGGGSQVQLVQSGAEVKKPGASVKVSCKASGYTFTDFEMHWVRQAPGQGLEWMGDIDPGTGDTAYNLKFKGRVTMTTDTSTSTAYMELRSLRSDDTAVYYCALGAFVYWGQGTLVTVSSGSTSGGGSGGGSGGGGSSDVVMTQSPLSLPVTPGEPASISCRSSQSLANSYGNTYLSWYLQKPGQSPQLLIYGISNRFSGVPDRFSGSGSGTDFTLKISRVEAEDVGVYYCLQGTHQPYTFGQGTKLEIKTTTPAPRPPTPAPTIASQPLSLRPEACRPAAGGAVHTRGLDFACDIYIWAPLAGTCGVLLLSLVITLYCRSKRSRLLHSDYMNMTPRRPGPTRKHYQPYAPPRDFAAYRSRVKFSRSADAPAYKQGQNQLYNELNLGRREEYDVLDKRRGRDPEMGGKPRRKNPQEGLYNELQKDKMAEAYSEIGMKGERRRGKGHDGLYQGLSTATKDTYDALHMQALPPR
B2: fusion protein shown in SEQ ID NO. 8 (anti-CD44 single-chain antibody, anti-CD133 single-chain antibody, CD28, truncated body of IL7Rα, CD3, T2A, anti-TIM3 … (other)
chain: QVQLVESGGGVVQPGRSLRLSCAASGFTFSSYGMHWVRQAPGKGLEWVAVIWYDGSNKFYADSVKGRFTISRDNSKNTLYLQMNSLRAEDTAVYYCARRSDYRGYYGMDVWGQGTTVTVSSGSTSGGGSGGGSGGGGSSEIVLTQSPATLSLSPGERATLSCRASQSVINYLAWYQQKPGQAPRLLIYDASNRASGIPARFSGSGSGTDFTLTISSLEPEDFAVYYCQQRRNWPLTFGGGTKVEIKGGGGSGGGGSGGGGSQVQLVQSGAEVKKPGASVKVSCKASGYTFTDFEMHWVRQAPGQGLEWMGDIDPGTGDTAYNLKFKGRVTMTTDTSTSTAYMELRSLRSDDTAVYYCALGAFVYWGQGTLVTVSSGSTSGGGSGGGSGGGGSSDVVMTQSPLSLPVTPGEPASISCRSSQSLANSYGNTYLSWYLQKPGQSPQLLIYGISNRFSGVPDRFSGSGSGTDFTLKISRVEAEDVGVYYCLQGTHQPYTFGQGTKLEIKTTTPAPRPPTPAPTIASQPLSLRPEACRPAAGGAVHTRGLDFACDIYIWAPLAGTCGVLLLSLVITLYCRSKRSRLLHSDYMNMTPRRPGPTRKHYQPYAPPRDFAAYRSKKRIKPIVWPSLPDHKKTLEHLCKKPRKNLNVSFNPESFLDCQIHRVDDIQARDEVEGFLQDTFPQQLEESEKQRLLGSNQEEAYVTMSSFYQNQRVKFSRSADAPAYKQGQNQLYNELNLGRREEYDVLDKRRGRDPEMGGKPRRKNPQEGLYNELQKDKMAEAYSEIGMKGERRRGKGHDGLYQGLSTATKDTYDALHMQALPPREGRGSLLTCGDVEENPGPMTNKCLLQIALLLCFSTTALSQVQLQQSGPGLVKPSHTLSLTCTVSGGSISSGGYYWSWTRQHPGMGLEWIGYISYSGSIYYTPSLKSRLTISVDTSKNQFSLKLSSVTAADTAVYYCASLDSWGSNRDYWGQGTLVTVSSGGGGSEIVLTQSPATLSLSPGERATLSCRASQSVSSYLAWYQQKPGQAPRLLIYDASNRATGIPARFSGSGSGTDFTLTISSLEPEDFAVYYCQQRSNWPLTFGGGTKVEIK
B3: fusion protein shown in SEQ ID NO. 5 (anti-CD44 single-chain antibody, CD28, truncated body of IL7Rα, CD3), expressed on CAR-T 3 cells (other)
chain: QVQLVESGGGVVQPGRSLRLSCAASGFTFSSYGMHWVRQAPGKGLEWVAVIWYDGSNKFYADSVKGRFTISRDNSKNTLYLQMNSLRAEDTAVYYCARRSDYRGYYGMDVWGQGTTVTVSSGSTSGGGSGGGSGGGGSSEIVLTQSPATLSLSPGERATLSCRASQSVINYLAWYQQKPGQAPRLLIYDASNRASGIPARFSGSGSGTDFTLTISSLEPEDFAVYYCQQRRNWPLTFGGGTKVEIKTTTPAPRPPTPAPTIASQPLSLRPEACRPAAGGAVHTRGLDFACDIYIWAPLAGTCGVLLLSLVITLYCRSKRSRLLHSDYMNMTPRRPGPTRKHYQPYAPPRDFAAYRSKKRIKPIVWPSLPDHKKTLEHLCKKPRKNLNVSFNPESFLDCQIHRVDDIQARDEVEGFLQDTFPQQLEESEKQRLLGSNQEEAYVTMSSFYQNQRVKFSRSADAPAYKQGQNQLYNELNLGRREEYDVLDKRRGRDPEMGGKPRRKNPQEGLYNELQKDKMAEAYSEIGMKGERRRGKGHDGLYQGLSTATKDTYDALHMQALPPR
B4: fusion protein shown in SEQ ID NO. 7 (anti-CD44 single-chain antibody, CD28, truncated body of IL7Rα, CD3, T2A, anti-TIM3 single-chain antibody), expressed on … (other)
chain: QVQLVESGGGVVQPGRSLRLSCAASGFTFSSYGMHWVRQAPGKGLEWVAVIWYDGSNKFYADSVKGRFTISRDNSKNTLYLQMNSLRAEDTAVYYCARRSDYRGYYGMDVWGQGTTVTVSSGSTSGGGSGGGSGGGGSSEIVLTQSPATLSLSPGERATLSCRASQSVINYLAWYQQKPGQAPRLLIYDASNRASGIPARFSGSGSGTDFTLTISSLEPEDFAVYYCQQRRNWPLTFGGGTKVEIKTTTPAPRPPTPAPTIASQPLSLRPEACRPAAGGAVHTRGLDFACDIYIWAPLAGTCGVLLLSLVITLYCRSKRSRLLHSDYMNMTPRRPGPTRKHYQPYAPPRDFAAYRSKKRIKPIVWPSLPDHKKTLEHLCKKPRKNLNVSFNPESFLDCQIHRVDDIQARDEVEGFLQDTFPQQLEESEKQRLLGSNQEEAYVTMSSFYQNQRVKFSRSADAPAYKQGQNQLYNELNLGRREEYDVLDKRRGRDPEMGGKPRRKNPQEGLYNELQKDKMAEAYSEIGMKGERRRGKGHDGLYQGLSTATKDTYDALHMQALPPREGRGSLLTCGDVEENPGPMTNKCLLQIALLLCFSTTALSQVQLQQSGPGLVKPSHTLSLTCTVSGGSISSGGYYWSWTRQHPGMGLEWIGYISYSGSIYYTPSLKSRLTISVDTSKNQFSLKLSSVTAADTAVYYCASLDSWGSNRDYWGQGTLVTVSSGGGGSEIVLTQSPATLSLSPGERATLSCRASQSVSSYLAWYQQKPGQAPRLLIYDASNRATGIPARFSGSGSGTDFTLTISSLEPEDFAVYYCQQRSNWPLTFGGGTKVEIK
B5: fusion protein shown in SEQ ID NO. 6 (anti-CD44 single-chain antibody, CD28, CD3, T2A, anti-TIM3 single-chain antibody), expressed on CAR-T 4 cells (other)
chain: QVQLVESGGGVVQPGRSLRLSCAASGFTFSSYGMHWVRQAPGKGLEWVAVIWYDGSNKFYADSVKGRFTISRDNSKNTLYLQMNSLRAEDTAVYYCARRSDYRGYYGMDVWGQGTTVTVSSGSTSGGGSGGGSGGGGSSEIVLTQSPATLSLSPGERATLSCRASQSVINYLAWYQQKPGQAPRLLIYDASNRASGIPARFSGSGSGTDFTLTISSLEPEDFAVYYCQQRRNWPLTFGGGTKVEIKTTTPAPRPPTPAPTIASQPLSLRPEACRPAAGGAVHTRGLDFACDIYIWAPLAGTCGVLLLSLVITLYCRSKRSRLLHSDYMNMTPRRPGPTRKHYQPYAPPRDFAAYRSRVKFSRSADAPAYKQGQNQLYNELNLGRREEYDVLDKRRGRDPEMGGKPRRKNPQEGLYNELQKDKMAEAYSEIGMKGERRRGKGHDGLYQGLSTATKDTYDALHMQALPPREGRGSLLTCGDVEENPGPMTNKCLLQIALLLCFSTTALSQVQLQQSGPGLVKPSHTLSLTCTVSGGSISSGGYYWSWTRQHPGMGLEWIGYISYSGSIYYTPSLKSRLTISVDTSKNQFSLKLSSVTAADTAVYYCASLDSWGSNRDYWGQGTLVTVSSGGGGSEIVLTQSPATLSLSPGERATLSCRASQSVSSYLAWYQQKPGQAPRLLIYDASNRATGIPARFSGSGSGTDFTLTISSLEPEDFAVYYCQQRSNWPLTFGGGTKVEIK
B6: fusion protein shown in SEQ ID NO. 3 (anti-CD44 single-chain antibody, CD28, CD3), expressed on CAR-T 1 cells (other)
chain: QVQLVESGGGVVQPGRSLRLSCAASGFTFSSYGMHWVRQAPGKGLEWVAVIWYDGSNKFYADSVKGRFTISRDNSKNTLYLQMNSLRAEDTAVYYCARRSDYRGYYGMDVWGQGTTVTVSSGSTSGGGSGGGSGGGGSSEIVLTQSPATLSLSPGERATLSCRASQSVINYLAWYQQKPGQAPRLLIYDASNRASGIPARFSGSGSGTDFTLTISSLEPEDFAVYYCQQRRNWPLTFGGGTKVEIKTTTPAPRPPTPAPTIASQPLSLRPEACRPAAGGAVHTRGLDFACDIYIWAPLAGTCGVLLLSLVITLYCRSKRSRLLHSDYMNMTPRRPGPTRKHYQPYAPPRDFAAYRSRVKFSRSADAPAYKQGQNQLYNELNLGRREEYDVLDKRRGRDPEMGGKPRRKNPQEGLYNELQKDKMAEAYSEIGMKGERRRGKGHDGLYQGLSTATKDTYDALHMQALPPR

Each binder was assayed against CD44 on CD44-positive and CD133-positive glioma stem cells GSC20 (UniProt P16070 21-742) (assay: cell-based or functional assay).

Binder	Lysis rate of glioma stem cells by CAR-T cells (LDH release), effect-target ratio 1:1	Lysis rate of glioma stem cells by CAR-T cells (LDH release), effect-target ratio 2:1	Lysis rate of glioma stem cells by CAR-T cells (LDH release), effect-target ratio 3:1	Lysis rate of glioma stem cells by CAR-T cells (LDH release), effect-target ratio 5:1
B1	14%	23.2%	41%	56.9%
B2	31.1%	50%	62.8%	86.8%
B3	15.2%	35.2%	44%	62.5%
B4	30.3%	48.5%	51.2%	81.2%
B5	22.2%	37.3%	56.2%	61.4%
B6	9.93%	12.2%	35%	57.3%
